Source: article PMC4347645

Biological target: desmoplakin (DP), endogenous (human (endogenous in HEK 293 and SCC9)) (UniProt P15924)
Test: proximity ligation

Chain of GSK3, endogenous in SCC9 cells (P49841 whole entry): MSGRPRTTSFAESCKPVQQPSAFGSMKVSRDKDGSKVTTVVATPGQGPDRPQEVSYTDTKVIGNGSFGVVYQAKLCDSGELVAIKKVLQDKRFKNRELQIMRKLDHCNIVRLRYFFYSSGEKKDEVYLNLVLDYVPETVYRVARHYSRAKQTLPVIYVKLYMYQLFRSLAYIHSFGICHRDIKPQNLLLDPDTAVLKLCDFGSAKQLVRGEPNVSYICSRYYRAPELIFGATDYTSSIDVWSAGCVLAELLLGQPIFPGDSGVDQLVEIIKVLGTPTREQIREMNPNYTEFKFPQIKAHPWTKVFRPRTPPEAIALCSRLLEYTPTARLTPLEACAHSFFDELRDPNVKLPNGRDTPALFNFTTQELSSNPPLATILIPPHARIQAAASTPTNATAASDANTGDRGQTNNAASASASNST
Chain of desmoplakin (DP), endogenous (human (endogenous in HEK 293 and SCC9)) (P15924 whole entry): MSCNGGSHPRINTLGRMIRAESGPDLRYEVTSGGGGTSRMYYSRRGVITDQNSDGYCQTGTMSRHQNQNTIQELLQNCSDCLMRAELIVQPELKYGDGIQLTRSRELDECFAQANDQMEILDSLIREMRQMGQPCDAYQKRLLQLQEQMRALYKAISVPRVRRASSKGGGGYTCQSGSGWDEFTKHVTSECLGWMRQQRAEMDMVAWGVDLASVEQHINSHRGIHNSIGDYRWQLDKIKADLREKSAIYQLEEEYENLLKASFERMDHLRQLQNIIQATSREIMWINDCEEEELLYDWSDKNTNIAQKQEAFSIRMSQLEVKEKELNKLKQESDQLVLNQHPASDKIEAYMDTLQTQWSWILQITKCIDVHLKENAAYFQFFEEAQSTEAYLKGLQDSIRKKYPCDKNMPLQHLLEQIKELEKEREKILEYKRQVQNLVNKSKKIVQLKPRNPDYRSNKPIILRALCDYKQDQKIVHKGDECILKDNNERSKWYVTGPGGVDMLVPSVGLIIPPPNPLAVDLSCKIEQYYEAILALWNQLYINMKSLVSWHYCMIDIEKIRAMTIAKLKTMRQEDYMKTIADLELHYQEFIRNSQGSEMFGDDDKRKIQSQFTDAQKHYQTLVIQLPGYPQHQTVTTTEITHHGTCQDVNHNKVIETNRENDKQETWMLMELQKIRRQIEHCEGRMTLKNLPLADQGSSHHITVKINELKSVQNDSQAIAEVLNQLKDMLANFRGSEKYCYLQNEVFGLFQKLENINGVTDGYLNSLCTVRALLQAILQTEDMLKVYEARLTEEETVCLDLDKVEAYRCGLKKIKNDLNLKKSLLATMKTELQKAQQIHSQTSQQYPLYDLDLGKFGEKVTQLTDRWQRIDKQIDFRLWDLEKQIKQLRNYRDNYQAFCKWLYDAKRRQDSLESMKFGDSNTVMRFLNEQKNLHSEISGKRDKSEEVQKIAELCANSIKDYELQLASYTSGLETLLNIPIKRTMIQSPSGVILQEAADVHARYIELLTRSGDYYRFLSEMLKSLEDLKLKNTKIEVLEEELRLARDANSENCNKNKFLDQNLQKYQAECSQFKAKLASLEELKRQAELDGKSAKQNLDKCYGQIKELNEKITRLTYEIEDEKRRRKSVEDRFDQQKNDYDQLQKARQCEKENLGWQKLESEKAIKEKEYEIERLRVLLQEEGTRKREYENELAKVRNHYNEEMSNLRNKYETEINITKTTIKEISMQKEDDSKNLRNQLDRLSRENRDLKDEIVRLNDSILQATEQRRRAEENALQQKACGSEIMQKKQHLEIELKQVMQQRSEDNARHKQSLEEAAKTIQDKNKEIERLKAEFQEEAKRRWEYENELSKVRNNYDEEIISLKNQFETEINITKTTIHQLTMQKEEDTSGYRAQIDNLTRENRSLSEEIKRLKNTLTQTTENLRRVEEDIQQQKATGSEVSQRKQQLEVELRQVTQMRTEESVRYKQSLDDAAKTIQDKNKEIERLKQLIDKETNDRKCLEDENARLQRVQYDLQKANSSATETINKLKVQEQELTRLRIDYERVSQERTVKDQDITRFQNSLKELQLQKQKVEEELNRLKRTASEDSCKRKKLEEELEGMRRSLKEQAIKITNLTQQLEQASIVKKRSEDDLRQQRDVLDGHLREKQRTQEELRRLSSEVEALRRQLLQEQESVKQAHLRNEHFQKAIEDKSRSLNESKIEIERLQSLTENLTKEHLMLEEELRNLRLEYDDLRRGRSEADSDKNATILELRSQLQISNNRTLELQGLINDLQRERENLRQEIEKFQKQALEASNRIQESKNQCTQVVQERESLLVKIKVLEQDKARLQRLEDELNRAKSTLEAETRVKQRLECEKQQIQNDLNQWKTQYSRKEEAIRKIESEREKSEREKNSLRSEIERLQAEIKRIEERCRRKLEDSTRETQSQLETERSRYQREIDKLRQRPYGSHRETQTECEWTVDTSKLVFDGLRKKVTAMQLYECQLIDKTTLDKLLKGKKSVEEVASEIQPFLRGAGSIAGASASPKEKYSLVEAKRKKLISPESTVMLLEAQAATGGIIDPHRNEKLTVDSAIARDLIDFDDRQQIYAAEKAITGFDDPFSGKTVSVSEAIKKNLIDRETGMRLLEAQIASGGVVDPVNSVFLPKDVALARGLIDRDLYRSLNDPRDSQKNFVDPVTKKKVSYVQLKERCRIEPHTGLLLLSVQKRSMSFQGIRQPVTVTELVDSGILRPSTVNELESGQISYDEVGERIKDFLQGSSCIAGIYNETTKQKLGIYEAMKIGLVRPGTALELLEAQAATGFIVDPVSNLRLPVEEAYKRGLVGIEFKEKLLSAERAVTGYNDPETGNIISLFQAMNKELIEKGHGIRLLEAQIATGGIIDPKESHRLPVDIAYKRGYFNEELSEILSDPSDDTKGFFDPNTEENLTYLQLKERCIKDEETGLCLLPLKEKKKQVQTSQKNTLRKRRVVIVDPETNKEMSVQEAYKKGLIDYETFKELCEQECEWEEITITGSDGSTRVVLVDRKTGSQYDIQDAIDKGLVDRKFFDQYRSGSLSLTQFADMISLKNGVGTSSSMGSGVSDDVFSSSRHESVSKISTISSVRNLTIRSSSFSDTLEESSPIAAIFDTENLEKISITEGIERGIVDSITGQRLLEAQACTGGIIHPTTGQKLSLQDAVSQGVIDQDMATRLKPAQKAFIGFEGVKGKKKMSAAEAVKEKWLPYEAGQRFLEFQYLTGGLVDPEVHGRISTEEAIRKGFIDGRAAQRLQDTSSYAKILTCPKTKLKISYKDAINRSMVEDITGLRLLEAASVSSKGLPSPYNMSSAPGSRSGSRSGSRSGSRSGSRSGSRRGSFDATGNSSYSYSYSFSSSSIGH

GSK3, endogenous in SCC9 cells (from UniProt P49841 1-420) (enzyme)
PLA fluorescent dots, fold over negative control antibody pairings: 20 fold
